Test results taken from US10487337B2, “Methods for monocot plant improvement” (Agresearch Limited, priority 2014, dated 2019).

Target: T1, BZR1 (Arabidopsis thaliana, UniProt Q8S307)
T1 construct: expressed in transfected cells; host or cells: Nicotiana benthamiana leaves (Agrobacterium infiltration)
T1 sequence (Q8S307 1-336): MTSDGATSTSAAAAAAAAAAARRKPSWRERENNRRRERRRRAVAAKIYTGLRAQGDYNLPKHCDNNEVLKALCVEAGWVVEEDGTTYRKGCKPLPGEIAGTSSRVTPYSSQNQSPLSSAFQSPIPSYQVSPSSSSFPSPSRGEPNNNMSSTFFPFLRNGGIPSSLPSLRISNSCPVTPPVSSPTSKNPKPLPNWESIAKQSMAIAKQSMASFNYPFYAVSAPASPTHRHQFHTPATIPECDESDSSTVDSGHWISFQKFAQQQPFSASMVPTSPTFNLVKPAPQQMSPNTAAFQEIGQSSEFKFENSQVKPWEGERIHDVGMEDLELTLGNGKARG
Assay: BiFC interaction with BZR1 in Nicotiana benthamiana leaves
Format: cell-based
Details: fully expanded leaves, co-expressed with cYFP-BZR1
Description: The binary BiFC-Gateway YFP vectors pDEST-VYNE(R)^GW (Venus aa 1-173) and pDEST-VYCE(R)^GW (Venus aa 156-239) with N-terminal fusions, were used to construct the following vectors; pDESTnYFP-BZR1, pDESTnYFP-NINJA, pDESTnYFP-PPD1, pDESTcYFP-BZR1, pDESTcYFP-PPD1, pDESTcYFP-PPD1Δppd, pDESTcYFP-PPD1Δtify and pDESTcYFP-PPD1Δjas*. For transient in planta expression of proteins interacting with PPD1 or BZR, NINJA and TPL were Gateway® sub-cloned into pRSh1, to construct pRSh1-NINJA and pRSh1-TPL. Plasmids for co-immunoprecipitation: A synthesised DNA construct encoding PPD1 with a 3×c-myc C-terminal fusion was sub-cloned into pRSh1 to produce pRSh1-PPD1-3×c-myc, while the NINJA cDNA sequence was sub-cloned into pB7FWG2,0 (Karimi et al 2002, Trends Plant Sci. 7, 193-195) to construct pB7FWG2-NINJA-GFP. When expressed these constructs produced proteins listed in sequences 60, 62, 70 71 72 73 74 75 76 77 78 79: including TOPLESS (TPL), NINJA, Bimolecular Fluorescence (BiFC) nYFP, BiFC cYFP, BiFC nYFP-NINJA, BiFC nYFP-BZR1, BiFC cYFP-PPD1, BiFC cYFP-NINJA, BiFC cYFP-BZR1, BiFC cYFP-PPD1-ppd, BiFC cYFP-PPD1-tify, BiFC cYFP-PPD1-jas*.
Transient BiFC experiments were performed using combinations of pDESTnYFP and pDESTcYFP plasmids, with or without plasmids for the expression of NINJA (pRSh1-NINJA) or TPL (pRSh1-TPL) and Agrobacterium-infiltration of Nicotiana benthamiana leaves. For infiltration Agrobacterium tumefaciens GV3101 strains containing the binary vectors were re-suspended from plates and prepared for transformation as described for the LUC assay. All YFP and expression strains were mixed in ratios of 1:1 (vol/vol) with the addition of strain P19 at 1/10th volume. Five leaf discs were sampled from each infiltrated leaf after 40 h. Two hours prior to sampling for microscopic fluorescence observations leaves were infiltrated with a 1 μg/ml DAPI solution to stain nuclei. YFP fluorescence and DAPI staining was detected using an Olympus Fluoview FV10i confocal laser scanning microscope. Each experiment was repeated twice.

nYFP-PPD1: BiFC fusion of PPD1 with the N-terminal Venus YFP fragment
interaction with BZR1: no interaction was observed
